Each sequence was assayed on TO-3-N3 (biotin conjugate) (assay: pull-down binding Z-score (relative to library population); higher = stronger binding). Settings: RNA library: Library-2.
Summary of the method: (§1)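 Streptavidin beads bearing 100 pmol of a biotin-conjugated small molecule were incubated for 60 min at 25 °C with 1 μg of heat-folded, Cy5- or Cy3-end-labelled RNA library in phosphate/NaCl/KCl buffer. Hot SDS eluted the RNA that stayed bound after three washes, and this RNA was hybridised for 20 h at 55.5 °C to a DNA barcode microarray. Binding was expressed as a Z-score against the library mean and standard deviation, after subtraction of a beads-only signal and trimmed averaging of barcoded replicate probes.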

Sequence	pull-down binding Z-score
GAGUUUGGAGUCGGUGGGUGGAGCCAAACUG [hsa-mir-6860]	1.13
GAGUUUGGGAUUUGAAAAAACC [hsa-mir-181a-2]	0.253
GAGUUUGGGCAGCUCAGGCAAACC [hsa-mir-181c]	-0.201
GAUAUGCCAUUAUGUGGGUCAUGAGGUGGUGA [hsa-mir-6864]	0.197
GAUCCAGCCCAGGCUGGUUCCGCUGAC [hsa-mir-4522]	1.15
GAUCCGGGAACCCACAGCCCCGUUC [hsa-mir-6783]	0.496
GAUCCUUUGUUCUGGAUC [hsa-mir-7856]	0.118
GAUGAAGAUUAAUCCCUAAUCCCCAACA [hsa-mir-6757]	-0.283
GAUGCUGUAUAUCUGAAAGGUAC [hsa-mir-101-2]	-0.357
GAUGCUGUCUAUUCUAAAGGUAC [hsa-mir-101-1]	-0.772
GAUGGAGGAAUCACAUGAAUUCAUC [hsa-mir-2115]	-0.415
GAUGGAUUCUUAUGCUCCAUC [hsa-mir-136]	-0.326
GAUGGGAUUAGAAACCAUAUGUCUCAUC [hsa-mir-3617]	0.0209
GAUGUAUCCAAGUACCCUGUGUUAUUUGGCAAUAAAUACAUC [hsa-mir-1298]	-0.204
GAUGUUUCUGCCAGUUUAGCGUC [hsa-mir-505]	0.0284
GAUUAUUGUAAGCAGGAUCCAUUCAAUAAUC [hsa-mir-5188]	-0.19
GAUUCGCUUUACUUAUGACGAAUC [hsa-mir-382]	-0.268
GAUUCUGAUUCAGGGACCAAGAUUC [hsa-mir-544a]	0.724
GAUUCUUGAGGCUUGGAAGAGUAAGGAUC [hsa-mir-6866]	-0.0976
GAUUGAAGUUGAAUAGUGC [hsa-mir-3161]	-0.231
GAUUGCUAAUAGUACCAAUC [hsa-mir-34c]	0.967
GAUUGGUCUGUGGUCCUCUC [hsa-mir-3615]	-0.569

Sequence	pull-down binding Z-score
GAUUGGUUAGCCUAAGACUUGUUCUGAUCCAAUC [hsa-mir-5701-1_5701-2_5701-3]	0.546
GAUUUCUAUGAGAACAUC [hsa-mir-3675]	-0.704
GAUUUUUUAGAUUCUAAAGAAAC [hsa-mir-1255a]	-0.837
GCAAGGCUGUAGUGUGCACAGCCUUGA [hsa-mir-4452]	0.945
GCAAGGUUGUUGGUGAUAUGGCUUCCUCUC [hsa-mir-4685]	-0.179
GCAAUCAGGACUGGGUCAUUC [hsa-mir-6873]	0.38
GCACCUGUUUGUGAC [hsa-mir-4718]	-0.491
GCACUCUGUAGUUUGGGUACACAGUGC [hsa-mir-5011]	-0.741
GCAGAAAUCACUCCAGGAGCAACUGA [hsa-mir-936]	-0.365
GCAGAGAAGACAGUGAGCUUGCCAGUUCUGGUUUCCAACACUUCCUUUCCUGCG [hsa-mir-3911]	0.56
GCAGAGCAGGACGCCGCUGCUGC [hsa-mir-8072]	0.701
GCAGAUAGUGGUCCUCUCCGUGCUACCGC [hsa-mir-106b]	-0.0735
GCAGAUUCUCUCUCUC [hsa-mir-4279]	0.105
GCAGCACUGUGCUGGGGAUGUUGC [hsa-mir-1301]	1.08
GCAGCAGGCACCUGCUUCC [hsa-mir-6868]	0.367
GCAGCCAGUCCUGUCUCACCGC [hsa-mir-6812]	-0.19
GCAGCCUUCUGCCUUUGGCUUUCUGAAGCGAGCUGA [hsa-mir-7158]	0.327
GCAGCCUUGC [hsa-mir-4298]	0.177
GCAGCUAGUAAUAUGAGCCCAGUUGC [hsa-mir-153-2]	0.0352
GCAGCUAGUAUUCUCACUCCAGUUGC [hsa-mir-153-1]	-0.447
GCAGCUGGAAUUCAAGCCCUGCUGC [hsa-mir-6882]	-0.477

These sequences were tested on G-clamp-N3 (biotin conjugate) in the same assay as above. Settings: RNA library: Library-1 (pre-miRNA loops + repeats).
Summary of the method: as §1

Sequence	pull-down binding Z-score
GAGGGGCUUACUGCCCUGUGGGGCUCUCUGGACCCAGUGCCAUGCUUCUC [hsa-mir-6728]	0.541
GAGGUCUUCCCAUGCUAAGAAGUCCUC [hsa-mir-2116]	-0.641
GAGGUGGGAAGGCUGCCCCAAAUGGCCUCUAACAUCCCUUCCAGUCUCCUCCUC [hsa-mir-6127]	-0.236
GAGGUUGCAGUGAGCCAAGAUCGUG [hsa-mir-4459]	2.18
GAGUACCUUCCAACACGAGCUCUC [hsa-mir-3664]	-1.16
GAGUAUUUUAAUACUGGCAUACUC [hsa-mir-1263]	-0.0468
GAGUCAGAAAAACUAC [hsa-mir-601]	-1.28
GAGUCCUAUUUAUUUUUAGGAUAUUAGGAA [hsa-mir-5692c-2]	-0.397
GAGUGAAUC [hsa-mir-3610]	-0.304
GAGUGAGGCCCAGUGGUCACCGCCGCCCUC [hsa-mir-4754]	-0.652
GAGUGGUCGGGUCGACUGAACC [hsa-mir-4726]	-0.197
GAGUGUAAUUACGUACAUGCAGUAGCUC [hsa-mir-618]	0.413
GAGUUGCUGAGUGGGUUGAUCUC [hsa-mir-6764]	0.494
GAGUUUGGAAUUAAAAUCAAAACC [hsa-mir-181a-1]	-0.118
GAGUUUGGAGUCGGUGGGUGGAGCCAAACUG [hsa-mir-6860]	2.37
GAGUUUGGGAUUUGAAAAAACC [hsa-mir-181a-2]	0.843
GAGUUUGGGCAGCUCAGGCAAACC [hsa-mir-181c]	0.335
GAUAUGCCAUUAUGUGGGUCAUGAGGUGGUGA [hsa-mir-6864]	0.225
GAUCCAGCCCAGGCUGGUUCCGCUGAC [hsa-mir-4522]	-0.211
GAUCCGGGAACCCACAGCCCCGUUC [hsa-mir-6783]	0.0468
GAUCCUUUGUUCUGGAUC [hsa-mir-7856]	0.436
GAUGAAGAUUAAUCCCUAAUCCCCAACA [hsa-mir-6757]	-1.77
GAUGCUGUAUAUCUGAAAGGUAC [hsa-mir-101-2]	-0.649
GAUGCUGUCUAUUCUAAAGGUAC [hsa-mir-101-1]	-0.819
GAUGGAGGAAUCACAUGAAUUCAUC [hsa-mir-2115]	0.704
GAUGGAUUCUUAUGCUCCAUC [hsa-mir-136]	0.328
GAUGGGAUUAGAAACCAUAUGUCUCAUC [hsa-mir-3617]	0.264
GAUGUAUCCAAGUACCCUGUGUUAUUUGGCAAUAAAUACAUC [hsa-mir-1298]	-1.2
